Reference: patent publication US20100298225A1, “PEPTIDE GAP JUNCTION MODULATORS” (priority 2007, published 2010)
“Also recorded” adds a separate entry of the source.

How the values were obtained:
[1] = molecular target: T1, Cx43-expressing N2a cells (Rattus norvegicus, UniProt P08050); experiment: Dual patch clamp: octanol-induced uncoupling, junctional conductance between cell pairs; type: cell-based; conditions: for Ability to re-open gap junctions closed by the uncoupler (revert uncoupled cells to coupled) / Effect on octanol-induced uncoupling: 0.1 mM peptide in internal pipette solution, octanol superfusion; for Effect on octanol-induced uncoupling: Vj 60 mV; for Average junctional conductance (Gj) as a function of time after onset of octanol: 0.1 mM peptide in pipette, Gj relative to value before octanol, N=7 pairs; for Decrease in Gj three minutes after onset of octanol: junctional current traces of a cell pair, peptide in internal pipette solution; for Cell pairs that remained coupled / uncoupled following onset of octanol superfusion: seven cell pairs, peptide in pipette, uncoupling = zero junctional current at 60-mV pulse
T1 construct: expressed in transfected cells; host or cells: N2a (neuroblastoma) cells
T1 sequence (P08050 whole entry, the tested form may be a part): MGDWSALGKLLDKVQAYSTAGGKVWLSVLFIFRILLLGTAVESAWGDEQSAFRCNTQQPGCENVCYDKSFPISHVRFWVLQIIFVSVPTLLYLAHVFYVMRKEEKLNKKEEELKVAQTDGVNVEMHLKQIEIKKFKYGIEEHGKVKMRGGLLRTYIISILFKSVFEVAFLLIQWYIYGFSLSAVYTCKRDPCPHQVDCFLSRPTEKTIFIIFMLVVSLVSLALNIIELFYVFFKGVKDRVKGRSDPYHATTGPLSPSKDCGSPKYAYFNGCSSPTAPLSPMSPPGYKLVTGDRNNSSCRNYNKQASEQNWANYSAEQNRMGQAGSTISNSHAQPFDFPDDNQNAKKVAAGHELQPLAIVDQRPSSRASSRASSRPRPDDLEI
Description: Experiments were conducted on N2a (Neuroblastoma) cells. Cx43 was expressed either in a lac-switch stable system (induced by 0.1-1.0 mM of IPTG (Zhong et al., “LacSwitch II Regulation of Connexin43 cDNA Expression Enables Gap-junction Single-channel Analysis,” Biotechniques 34(5):1034-1034, 1041-1044, 1046 (2003), which is hereby incorporated by reference in its entirety)) or transiently using an IRES plasmid coding for eGFP (Seki et al., “Modifications in the Biophysical Properties of Connexin43 Channels by a Peptide of the Cytoplasmic Loop Region,” Circ. Res. 95(4):e22-e28 (2004); Seki et al., “Loss of Electrical Communication, but Not Plaque Formation, After Mutations in the Cytoplasmic Loop of Connexin43,” Heart Rhythm. 1(2):227-233 (2004), which are hereby incorporated by reference in their entirety). M257 (a mutant of Cx43 truncated at amino acid 257 (Morley et al., “Intramolecular Interactions Mediate pH Regulation of Connexin43 Channels,” Biophys. J. 70(3):1294-1302 (1996), which is hereby incorporated by reference in its entirety)) was transiently expressed in N2a cells also using an eGFP-containing IRES plasmid. Cells were placed on the stage of an inverted microscope equipped for epifluorescence (Nikon Diaphoto200, Filter: 520 to 560 nm). Junctional current (I) was recorded from eGFP-positive cell pairs in a dual-whole-cell voltage clamp configuration (holding potentials: −40 mV; transjuctional voltage, Vj, +[…]; step duration, 10-30 seconds). Patch pipettes were filled with a cesium-containing solution (Seki et al., “Modifications in the Biophysical Properties of Connexin43 Channels by a Peptide of the Cytoplasmic Loop Region,” Circ. Res. 95(4):e22-e28 (2004); Seki et al., “Loss of Electrical Communication, but Not Plaque Formation, After Mutations in the Cytoplasmic Loop of Connexin43,” Heart Rhythm. 1(2):227-233 (2004), which are hereby incorporated by reference in their entirety). For the low pH experiments, HEPES was replaced by MES (10 mM). Pipette resistance was 4.0-6.0MΩ. Synthetic peptides were diluted in the pipette solution to a final concentration of 0.1 mM. During recording, cells were kept at room temperature in a cesium-containing solution (Seki et al., “Modifications in the Biophysical Properties of Connexin43 Channels by a Peptide of the Cytoplasmic Loop Region,” Circ. Res. 95(4):e22-e28 (2004); Seki et al., “Loss of Electrical Communication, but Not Plaque Formation, After Mutations in the Cytoplasmic Loop of Connexin43,” Heart Rhythm. 1(2):227-233 (2004), which are hereby incorporated by reference in their entirety). For some experiments, octanol (2.0 mM) was superfused during recording. Data acquisition and recording, and criteria for single channel detection were as reported in Seki et al., “Modifications in the Biophysical Properties of Connexin43 Channels by a Peptide of the Cytoplasmic Loop Region,” Circ. Res. 95(4):e22-e28 (2004) and Seki et al., “Loss of Electrical Communication, but Not Plaque Formation, After Mutations in the Cytoplasmic Loop of Connexin43,” Heart Rhythm. 1(2):227-233 (2004), which are hereby incorporated by reference in their entirety.
Compounds were tested for their ability to interfere with octanol-induced uncoupling. Compounds are tested for their ability to interfere with acidification induces uncoupling.
Experiments were modeled after those described in Shibayama et al (2006). Junctional conductance between Cx43-expressing N2a cell pairs was assessed using conventional dual patch clamp. Peptides were diluted in the patch pipette solution and the cells will be exposed either to octanol or to a low intracellular pH. Control experiments were carried out in the absence of the compound. The results are shown in FIGS. 3A-E, which are graphs of the time course of octanol-induced changes in coupling recorded from Cx43-expressing N2a cells. FIGS. 3A-E relate to peptides 2517, 2518, 2529, 2520 and 2624 respectively. […]

[2] = molecular target: T2, carboxyl terminal domain (CT) of Cx43 (Rattus norvegicus, UniProt P08050); experiment: Peptide binding to Cx43CT determined using surface plasmon resonance (SPR); conditions: for SPR respons: immobilised recombinant Cx43CT; for SPR data normalised on Mw: value = (SPRrespons*100)/Mw
T2 construct: GST (N, cleaved yes); made in house; host or cells: E. coli BL-21
T2 sequence (P08050 255-382): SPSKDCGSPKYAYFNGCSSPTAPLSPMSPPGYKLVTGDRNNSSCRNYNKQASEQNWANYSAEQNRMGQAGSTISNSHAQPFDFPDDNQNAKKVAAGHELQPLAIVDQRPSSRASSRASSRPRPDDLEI
Description: 277(39):36706-36714 (2002), which is hereby incorporated by reference in its entirety. Briefly, cDNA derived from rat Cx43 was inserted into pGEX-6P-2 (Amersham) and expressed in E. coli (BL-21). The resultant GST-fusion protein was cleaved from the GST PreScission Protease® (Amersham Biosciences). The recombinant product after cleavage contained the sequence 255-382 of rCx43 preceded by four additional amino acids (GPLG). Protein concentration was measured using the Bio-Rad DC Protein Assay. Protein purity was assessed by SDS-PAGE.
Recombinant Cx43CT was covalently bound to a carboxylmethyl dextran matrix (Salamon et al., “Surface Plasmon Resonance Spectroscopy as a Tool for Investigating the Biochemical and Biophysical Properties of Membrane Protein Systems. II: Applications to Biological Systems,” Biochim. Biophys. Acta 1331(2):131-152 (1997), which is hereby incorporated by reference in its entirety). Specific peptides were presented and, when feasible, dissociation constants (KD) were calculated from the time course of binding and unbinding of the ligand, using a 1:1 (Langmuir) association and dissociation kinetic model (Biacore software package). In both phases (association and dissociation), the first 5-8 seconds of recording were not included in the fit, to avoid artifacts resulting from peptide distribution within the flow cells (Lang et al., “Surface Plasmon Resonance as a Method to Study the Kinetics and Amplitude of Protein-protein Binding,” in PRACTICAL METHODS IN CARDIOVASCULAR RESEARCH 936-947 (Stefan Dhein, Friedrich Wilhelm Mohr & Mario Delmar eds., 2005), which is hereby incorporated by reference in its entirety).
The peptides shown in table 2 and 3 were tested for binding to the carboxyl terminal domain (CT) of Cx43 using Surface Plasmon Resonance (“SPR”). SPR is a method that was used to identify the original RXPE sequence (Shibayama et al., “Identification of a Novel Peptide that Interferes with the Chemical Regulation of Connexin-43,” Circ. Res. 98:1365-72 (2006)). The amplitude of the response is also a function of the mass of the ligate, and the normalized data according to the individual peptide Mw's are shown in table 3.

Row | Substance | Ability to re-open gap junctions closed by the uncoupler (revert uncoupled cells to coupled) [1] | Effect on octanol-induced uncoupling [1] | Average junctional conductance (Gj) as a function of time after onset of octanol [1] | Decrease in Gj three minutes after onset of octanol [1] | Cell pairs that remained coupled / uncoupled following onset of octanol superfusion [1] | SPR respons ([2]; peptide 25 uM) [arbitrary units] | SPR respons ([2]; peptide 100 uM) [arbitrary units] | SPR respons ([2]; peptide 250 uM) [arbitrary units] | SPR respons ([2]; peptide 500 uM) [arbitrary units] | SPR respons ([2]; peptide 1 mM) [arbitrary units] | SPR data normalised on Mw ([2]; peptide 500 uM) | SPR data normalised on Mw ([2]; peptide 1 mM)
1 | Ac-Arg-Arg-Asn-Tyr-Gly-Gly-Gly-Ser-Ala-Val-Pro-Phe-Tyr-Ser-His-Ser-Arg-Arg-Asn-Tyr-Gly-Gly-Gly-Ser-Ala-Val-Pro-Phe-Tyr-Ser-His-Ser-Arg-Arg-Asn-Tyr-Gly-Gly-Gly-Ser-Ala-Val-Pro-Phe-Tyr-Ser-His-Ser-Arg-Arg-Asn-Tyr-NH2 (Ac-RRNYGGGSAVPFYSHSRRNYGGGSAVPFYSHSRRNYGGGSAVPFYSHSRRNY-NH2) [Compound 2372] | able to revert uncoupled cells to couple cells; also recorded: re-open gap junctions that were initially closed by the uncoupler | prevented octanol-induced uncoupling | a slight decrease in Gj was apparent; also recorded: decreased at first and then increased | no or only a minor decrease in Gj | none of the cell pairs exposed to 2372 uncoupled |  |  |  |  |  |  | 
2 | Ac-Arg-Arg-Asn-Tyr-Ser-Ala-Val-Pro-Phe-Tyr-Ser-His-Ser-Arg-Arg-Asn-Tyr-NH2 (Ac-RRNYSAVPFYSHSRRNY-NH2) [Compound 2506] |  |  |  |  |  | 51.7 | 117.2 | 327 | 561.8 | 1172.8 |  | 
3 | Ac-Arg-Arg-Asn-Tyr-Gly-Gly-Gly-Ser-Ala-Val-Pro-Phe-Tyr-Ser-His-Ser-Arg-Arg-Asn-Tyr-Gly-Gly-Gly-Ser-Ala-Val-Pro-Phe-Tyr-Ser-His-Ser-Arg-Arg-Asn-Tyr-NH2 (Ac-RRNYGGGSAVPFYSHSRRNYGGGSAVPFYSHSRRNY-NH2) [Compound 2371] | able to revert uncoupled cells to couple cells; also recorded: re-open gap junctions that were initially closed by the uncoupler | prevented octanol-induced uncoupling | decreased at first and then increased | no or only a minor decrease in Gj | uncoupled and then recoupled |  |  |  |  |  |  | 
4 | Ac-Arg-Arg-Asn-Tyr-Ser-His-Ser-Arg-Arg-Asn-Tyr-NH2 (Ac-RRNYSHSRRNY-NH2) [Compound 2507] |  |  |  |  |  | 42.3 | 113.5 | 254.2 | 438.5 | 703.2 |  | 
5 | Ac-Arg-Arg-Asn-Tyr-Val-Pro-Arg-Arg-Asn-Tyr-NH2 (Ac-RRNYVPRRNY-NH2) [Compound 2512] |  |  |  |  |  | 14.8 | 50.7 | 117.2 | 227.3 | 394.7 |  | 
6 | Ac-Arg-Arg-Asn-Tyr-Gly-Gly-Gly-Ser-Ala-Val-Pro-Phe-Tyr-Arg-Arg-Asn-Tyr-NH2 (Ac-RRNYGGGSAVPFYRRNY-NH2) [Compound 2508] |  |  |  |  |  | 31.1 | 121.9 | 284.6 | 546.8 | 1024.5 |  | 
7 | Ac-Tyr-Asn-Arg-Arg-Gly-Gly-Gly-Ser-Ala-Val-Pro-Phe-Tyr-Ser-His-Ser-Tyr-Asn-Arg-Arg-NH2 (Ac-YNRRGGGSAVPFYSHSYNRR-NH2) [Compound 2496] |  |  |  |  |  | 67.7 | 155.9 | 358.1 | 738.6 | 1402 |  | 
8 | Ac-Arg-Arg-Asn-Tyr-Gly-Gly-Ser-Ala-Val-Pro-Phe-Tyr-Ser-His-Arg-Arg-Asn-Tyr-NH2 (Ac-RRNYGGSAVPFYSHRRNY-NH2) [Compound 2510] |  |  |  |  |  | 40.3 | 176.2 | 331.5 | 643.3 | 1188 |  | 
9 | Ac-Arg-Arg-Asn-Tyr-Gly-Gly-Gly-Arg-Arg-Asn-Tyr-NH2 (Ac-RRNYGGGRRNY-NH2) [Compound 2509] |  |  |  |  |  | 21.5 | 62.5 | 148.5 | 280.8 | 478.9 |  | 
10 | Ac-Arg-Arg-Asn-Tyr-Ala-Val-Pro-Phe-Arg-Arg-Asn-Tyr-NH2 (Ac-RRNYAVPFRRNY-NH2) [Compound 2511] |  |  |  |  |  | 16.2 | 90.5 | 214.2 | 389.6 | 691.5 |  | 
11 | Ac-Arg-Arg-Asn-Tyr-NH2 (Ac-RRNY-NH2) [Compound 2498] |  |  |  |  |  |  |  |  | 50.9 | 91 | 7.9 | 14.0
12 | Ac-Tyr-Asn-Arg-Arg-NH2 (Ac-YNRR-NH2) [Compound 2499] |  |  |  |  |  |  |  |  |  | 69.4 |  | 10.7
